Results as given in patent US20100167314A1 (JAPAN SCIENCE AND TECHNOLOGY AGENCY, published 2010).

T1: myc-tagged CPSF160 subunit of mouse CPSF (mouse, UniProt Q9EPU4 1-1441, limits assumed)
T1 construct: Co-expressed with IRBIT in COS cells; not shown: myc tag
T1 sequence (looked up): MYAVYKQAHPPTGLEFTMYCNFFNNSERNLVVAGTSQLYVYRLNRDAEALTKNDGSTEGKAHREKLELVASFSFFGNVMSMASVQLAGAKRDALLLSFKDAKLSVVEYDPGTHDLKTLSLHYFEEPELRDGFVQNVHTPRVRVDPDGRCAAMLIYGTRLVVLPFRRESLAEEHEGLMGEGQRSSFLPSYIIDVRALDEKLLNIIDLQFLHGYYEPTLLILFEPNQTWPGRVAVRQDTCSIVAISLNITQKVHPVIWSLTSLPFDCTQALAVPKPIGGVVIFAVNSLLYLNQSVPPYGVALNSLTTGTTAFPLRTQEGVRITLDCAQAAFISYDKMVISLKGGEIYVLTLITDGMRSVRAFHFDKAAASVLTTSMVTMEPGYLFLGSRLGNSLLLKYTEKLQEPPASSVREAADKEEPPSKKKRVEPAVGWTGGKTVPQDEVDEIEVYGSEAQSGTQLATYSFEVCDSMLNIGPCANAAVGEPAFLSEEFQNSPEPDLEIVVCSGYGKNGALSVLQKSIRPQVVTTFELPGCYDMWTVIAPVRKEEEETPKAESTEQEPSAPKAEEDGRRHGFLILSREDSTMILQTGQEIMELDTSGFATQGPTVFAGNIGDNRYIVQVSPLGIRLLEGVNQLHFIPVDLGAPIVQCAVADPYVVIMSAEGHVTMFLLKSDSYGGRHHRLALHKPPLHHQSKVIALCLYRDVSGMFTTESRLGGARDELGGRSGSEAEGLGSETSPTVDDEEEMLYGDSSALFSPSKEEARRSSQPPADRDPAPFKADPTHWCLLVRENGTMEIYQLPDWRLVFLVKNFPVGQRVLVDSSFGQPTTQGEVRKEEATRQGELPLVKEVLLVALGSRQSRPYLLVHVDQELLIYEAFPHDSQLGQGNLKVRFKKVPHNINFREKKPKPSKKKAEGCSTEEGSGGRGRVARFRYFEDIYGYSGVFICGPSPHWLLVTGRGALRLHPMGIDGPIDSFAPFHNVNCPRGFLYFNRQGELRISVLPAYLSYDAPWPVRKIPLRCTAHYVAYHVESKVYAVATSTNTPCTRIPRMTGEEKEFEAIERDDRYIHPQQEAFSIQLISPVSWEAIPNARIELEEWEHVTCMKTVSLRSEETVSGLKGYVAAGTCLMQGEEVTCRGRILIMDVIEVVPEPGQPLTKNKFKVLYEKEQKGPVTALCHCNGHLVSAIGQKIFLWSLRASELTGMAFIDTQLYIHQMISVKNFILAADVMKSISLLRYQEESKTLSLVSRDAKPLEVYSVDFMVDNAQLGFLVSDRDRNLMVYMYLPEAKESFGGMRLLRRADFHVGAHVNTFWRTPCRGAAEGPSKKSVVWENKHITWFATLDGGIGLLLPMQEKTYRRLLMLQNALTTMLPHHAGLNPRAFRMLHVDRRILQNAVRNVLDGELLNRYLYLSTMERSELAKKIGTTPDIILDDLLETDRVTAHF

B1: mouse IRBIT (IP3 receptor-binding protein; IP3R-binding protein released with inositol 1,4,5-trisphosphate) (other)
chain: MSMPDAMPLPGVGEELKQAKEIEDAEKYSFMATVTKAPKKQIQFADDMQEFTKFPTKTGRRSLSRSISQSSTDSYSSAASYTDSSDDEVSPREKQQTNSKGSSNFCVKNIKQAEFGRREIEIAEQDMSALISLRKRAQGEKPLAGAKIVGCTHITAQTAVLIETLCALGAQCRWSACNIYSTQNEVAAALAEAGVAVFAWKGESEDDFWWCIDRCVNMDGWQANMILDDGGDLTHWVYKKYPNVFKKIRGIVEESVTGVHRLYQLSKAGKLCVPAMNVNDSVTKQKFDNLYCCRESILDGLKRTTDVMFGGKQVVVCGYGEVGKGCCAALKALGAIVYITEIDPICALQACMDGFRVVKLNEVIRQVDVVITCTGNKNVVTREHLDRMKNSCIVCNMGHSNTEIDVTSLRTPELTWERVRSQVDHVIWPDGKRVVLLAEGRLLNLSCSTVPTFVLSITATTQALALIELYNAPEGRYKQDVYLLPKKMDEYVASLHLPSFDAHLTELTDDQAKYLGLNKNGPFKPNYYRY
notes: also called Mouse-derived IRBIT

What was measured:
[1] = biological target: B1; assay: immunoprecipitation from mouse cerebellum with anti-IRBIT antibody
Experimental: (1) Mouse IRBIT and Myc-PIPKIIα, β, or γ were over-expressed in COS-7, followed by immunoprecipitation. Specifically, cells were solubilized with a lysis buffer (10 mM Hepes, 100 mM NaCl, 2 mM EDTA, 1% P-40, pH 7.4) and then centrifuged (20000×g, 30 minutes) to collect supernatants. Subsequently, an anti-Myc antibody or an anti-IRBIT antibody was added and then reaction was performed for 1 hour. Furthermore, protein G Sepharose® was added before one hour reaction, and the immune complex was washed with a lysis buffer and then eluted with a SDS-PAGE sample buffer. Subsequently, Western blotting was performed using an anti-Myc antibody or an anti-IRBIT antibody. As a result, IRBIT was coprecipitated with Myc-PIPKIIα, β, and γ (FIG. 4). (2) Immunoprecipitation was performed using an anti-IRBIT antibody and the mouse cerebellum, so that PIPKIIα was coprecipitated (FIG. 5). The in vivo binding of IRBIT with PIPKII was confirmed based on the results. (3) Mouse IRBIT and Myc-PIPKIIγ were overexpressed in COS-7 and then immunostaining was performed. Specifically, after fixation with 4% paraformaldehyde, transmembrane treatment with 0.1% Triton X-100 and blocking treatment with 2% goat serum were performed, a mouse anti-Myc antibody and a rabbit anti-IRBIT antibody were added, and then reaction was performed at room temperature for 1 hour. […]

[2] = biological target: T1, myc-tagged CPSF160 subunit of mouse CPSF; assay: co-expression in COS cells, co-immunoprecipitation, detection with anti-IRBIT and anti-myc antibodies
Experimental: CPSF is a group of conjugated proteins consisting of 4 subunits: CPSF160, CPSF100, CPSF73, and CPSF30. First, to reveal to which one of the 4 subunits IRBIT binds, myc-tagged cDNAs prepared by tagging each subunit with myc were expressed together with IRBIT in various combinations by COS cells or the like and then the way in which coprecipitation occurs upon immunoprecipitation of IRBIT or CPSF was examined.
DNA was prepared by fusing DNA encoding an myc tag to cDNA encoding the full-length of or each subunit of CPSF. The thus prepared DNA was inserted into a vector for mammals. Meanwhile, cDNA encoding IRBIT was also inserted into the same vector. COS cells were transformed with the thus prepared vector and then the above DNA was co-expressed.
Cells were separated by centrifugation and then lysed. Cytoplasmic fractions were collected and then the binding of IRBIT to CPSF was detected using an anti-IRBIT antibody (JP2004-129612 A) and an anti-myc antibody.

Binder	binding result [1]	binding result [2]
mouse cerebellum PIPKIIα (enzyme, UniProt O70172 2-405, looked up, Endogenous protein coprecipitated with an anti-IRBIT antibody) ATPGNLGSSVLASKTKTKKKHFVAQKVKLFRASDPLLSVLMWGVNHSINELSHVQIPVMLMPDDFKAYSKIKVDNHLFNKENMPSHFKFKEYCPMVFRNLRERFGIDDQDFQNSLTRSAPLPNDSQARSGARFHTSYDKRYVIKTITSEDVAEMHNILKKYHQYIVECHGVTLLPQFLGMYRLNVDGVEIYVIVTRNVFSHRLSVYRKYDLKGSTVAREASDKEKAKELPTLKDNDFINEGQKIYIDDNNKKIFLEKLKKDVEFLAQLKLMDYSLLVGIHDVERAEQEEVECEENDGEEEGESDSTHPIGTPPDSPGNTLNSSPPLAPGEFDPNIDVYAIKCHENAPRKEVYFMAIIDILTHYDAKKKAAHAAKTVKHGAGAEISTVNPEQYSKRFLDFIGHIL	binds	
B1		binds
